Test results from PMC10604876, “Development of Anti-OSCAR Antibodies for the Treatment of Osteoarthritis” (Biomedicines, 2023).

Tests used:
[1] = biological target: anti-OSCAR antibody D11, human IgG1; experiment: BLI; Octet; IgG (5 ug/mL) captured on FAB2G sensor; 4.69-75 nM hOSCAR-Fc or mOSCAR-Fc (two-fold serial dilution) in PBST; 1:1 Langmuir model
[2] = biological target: T1, mouse OSCAR extracellular domains fused to human IgG1 Fc (Mus musculus (Mouse)., UniProt Q8VBT3); experiment: as above; conditions: both partners purified
T1 construct: osteoclast-associated receptor (OSCAR), mouse, extracellular domains 'corresponding' to amino acids 19-233 of human OSCAR; also called mOSCAR-Fc; mOSCAR; source: FreeStyle 293F, transfected (pVITRO1), secreted, purified (Protein G-Sepharose)
T1 sequence (Q8VBT3 19-231): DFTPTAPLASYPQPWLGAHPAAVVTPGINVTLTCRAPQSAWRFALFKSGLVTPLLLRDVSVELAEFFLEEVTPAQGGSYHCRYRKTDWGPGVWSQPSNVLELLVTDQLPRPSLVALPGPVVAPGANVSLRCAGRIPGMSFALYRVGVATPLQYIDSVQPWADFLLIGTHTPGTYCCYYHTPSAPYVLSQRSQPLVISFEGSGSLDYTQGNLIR

[3] = biological target: T1, mouse OSCAR extracellular domains fused …; experiment: ELISA; serial dilution ELISA of IgG-format antibodies against hOSCAR-Fc and mOSCAR-Fc; EC50; conditions: both partners purified
[4] = biological target: T2, human OSCAR extracellular domains fused to human IgG1 Fc (human) (UniProt Q8IYS5); experiment: as above
T2 sequence: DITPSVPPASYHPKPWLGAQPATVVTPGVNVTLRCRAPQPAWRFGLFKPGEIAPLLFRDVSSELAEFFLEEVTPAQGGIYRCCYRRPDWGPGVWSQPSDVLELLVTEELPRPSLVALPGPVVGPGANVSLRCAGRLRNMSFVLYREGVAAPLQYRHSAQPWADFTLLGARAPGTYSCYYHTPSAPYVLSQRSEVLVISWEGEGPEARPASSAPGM

[5] = biological target: T3, human OSCAR extracellular domains fused to human IgG1 Fc (Homo sapiens, UniProt Q8IYS5-2); experiment: as above; conditions: both partners purified
T3 construct: osteoclast-associated receptor (OSCAR), human, extracellular domains, amino acids 19-233; also called hOSCAR-Fc; hOSCAR; source: FreeStyle 293F, transfected (pVITRO1), secreted, purified (Protein G-Sepharose)

[6] = biological target: T3, human OSCAR extracellular domains fused …; experiment: BLI; Octet; IgG (5 ug/mL) captured on FAB2G sensor; 4.69-75 nM hOSCAR-Fc or mOSCAR-Fc (two-fold serial dilution) in PBST; 1:1 Langmuir model; conditions: both partners purified
[7] = biological target: T3, human OSCAR extracellular domains fused …; experiment: ELISA; serial dilution ELISA of IgG-format antibodies against hOSCAR-Fc and mOSCAR-Fc; EC50; conditions: both partners purified; remark: listed apart in the source

B1: human OSCAR extracellular domains fused to human IgG1 Fc (Fc fusion)
chain: T2 sequence
Q: Which Kd [1] does the source give for B1 here?
A: 5.61 nM

Q: And the koff [1]?
A: 0.000512 s⁻¹

Q: What about the kon [1] of the same binder?
A: 91300 M⁻¹ s⁻¹

B2: anti-OSCAR antibody D11, human IgG1 (antibody, V domains shown)
VH: EVQLLESGGGLVQPGGSLRLSCAASGFTFSDYYWTWVRQAPGKGLEWVSGSPVFGAANYAQNFQGRFTISRDNSKNTLYLQMNSLRAEDTAVYYCAKAGFTGGHFDIWGQGTLVTVSS
VL: QSVLTQPPSASGTPGQRVTISCSGSSSNIGNNYVSWYQQLPGTAPKLLIYGNSNRPSGVPNRFSGSKSGTSASLAISGLRSEDEADYYCQSYDSSSWLFGGGTKLTVL
notes: VH before CDR-H3 (clone from a synthetic human scFv library); rest of VH after CDR-H3 and the human IgG1 constant region; light chain of D11; IgG1; Only the CDR-H3 is printed; also called D11 (parent); D11 IgG; source: ExpiCHO, transfected (pcIW3.3), secreted, purified (Protein G)
Q: What does the source list for B2?
A: Kd [2]: 2.87 nM; koff [2]: 0.000254 s⁻¹; kon [2]: 91300 M⁻¹ s⁻¹; EC50 [3]: 151 nM; EC50 [4]: > 1000 nM

B3: anti-OSCAR antibody D11-B9, human IgG1 (affinity-matured variant of D11) (antibody, V domains shown)
VH: EVQLLESGGGLVQPGGSLRLSCAASGFTFSDYYWTWVRQAPGKGLEWVSGSPVFGAANYAQNFQGRFTISRDNSKNTLYLQMNSLRAEDTAVYYCAKAGIPGHFDIWGQGTLVTVSS
VL: B2 VL
notes: VH before CDR-H3, as the heavy chain of m3; rest of VH after CDR-H3 and the human IgG1 constant region, as the heavy chain of m3; as the light chain of m3 (only CDR-H3 was randomized); IgG1; Only the CDR-H3 is printed; From NNK randomization of residues H98-99 (Kabat); CDR-H3 is one residue shorter than the parent's; also called D11-4-B9; source: ExpiCHO, transfected (pcIW3.3), secreted, purified …
Q: With B3 as the binder, how does the EC50 [5] read?
A: 0.93 nM

Q: What about the Kd [2] of the same binder?
A: 0.22 nM

Q: And the koff [2]?
A: 2.59e-05 s⁻¹

Q: What about the kon [2] of the same binder?
A: 913000 M⁻¹ s⁻¹

Q: And the Kd [6]?
A: 0.41 nM

Q: And the koff [6]?
A: 4.15e-05 s⁻¹

Q: And the kon [6]?
A: 101000 M⁻¹ s⁻¹

Q: What about the EC50 [3] of the same binder?
A: 0.93 nM

Q: What about the EC50 [7] of the same binder?
A: 36.8 nM
